Experimental data published in patent publication US20220275089A1 (AKESO PHARMACEUTICALS, published 2022).
Blank lines part the entries; values can stand above or below the binder they belong to.

Experiments:
C1q [1] = biological target: T1, C1q (UniProt P02745 23-245; P02746 28-253; P02747 29-245); assay: BLI (Fortebio Octet), antibody on FAB2G sensor, C1q 1.25-20 nM, 1:1 fit
T1 construct: also called serum complement C1q; complement C1q
Protocol: (§1) 50 μg/mL antibody was immobilized on the FAB2G sensor at an immobilization height of about […]. […] The antigen and antibody were dissociated in the buffer for 60 s. The sensor was refreshed 4 times in 10 mM glycine pH 1.7, each for 5 s. The shaking speed of the sample plate was 1000 rpm, the temperature was 30° C. and the frequency was 0.6 Hz. The data were analyzed by 1:1 model fitting to obtain affinity constants. The data acquisition software was Fortebio Data Acquisition 7.0, and the data analysis software was Fortebio Data Analysis 7.0.

FcγRI [2] = biological target: T2, FcγRI (UniProt P12314 16-288, limits assumed); assay: BLI (Fortebio Octet), FcγRI on HIS1K sensor, antibody 3.12-50 nM, 1:1 fit
T2 construct: construct not described; also called CD64; FcγR1
Protocol: (§2) A 1 μg/mL FcγRI solution (from Sinobio) was added to the HIS1K sensor to immobilize the FcγRI on the sensor surface for 50 s. […] The sensor with immobilized antigen was equilibrated in the buffer for 60 s, and then the binding of the immobilized FcγRI on the sensor to the antibodies was determined for 120 s; the dissociation of FcγRI from the antibodies was determined in 120 s. The temperature was 30° C. and the frequency was 0.3 Hz. The data were fitted and analyzed with a 1:1 model to obtain the affinity constants to FcγRI for the antibodies.

FcγRIIb [3] = biological target: T3, FcγRIIb (UniProt P31994 43-217, limits assumed); assay: BLI (Fortebio Octet), FcγRIIb on NTA sensor, antibody 12.5-200 nM, 1:1 fit
T3 construct: also called CD32b
T3 sequence (looked up): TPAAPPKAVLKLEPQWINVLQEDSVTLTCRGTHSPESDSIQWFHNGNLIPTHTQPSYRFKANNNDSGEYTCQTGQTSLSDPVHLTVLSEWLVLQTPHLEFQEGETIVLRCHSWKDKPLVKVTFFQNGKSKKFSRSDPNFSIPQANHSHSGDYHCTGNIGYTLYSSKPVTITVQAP
Protocol: (§3) 5 μg/mL FcγRIIb was immobilized on the NTA sensor at an immobilization height of about 1.0 nm. […] The antibody was dissociated in the buffer for 60 s. The sensor was refreshed in 10 mM glycine pH 1.7 and 10 nM nickel sulfate. The temperature was 30° C. and the frequency was 0.6 Hz. The data were analyzed by 1:1 model fitting to obtain affinity constants.

FcγRIIb [4] = biological target: T3, FcγRIIb; assay: BLI (Fortebio Octet), FcγRIIb immobilized on NTA sensor, antibody in solution at 12.5-200 nM
Protocol: as §3

FcγRIIa_H131 = biological target: T4, FcγRIIa_H131 (UniProt P12318 34-218); assay: BLI (Fortebio Octet), FcγRIIa_H131 immobilized on NTA sensor, antibody in solution at 12.5-200 nM
T4 construct: H131 polymorphic form
T4 sequence (looked up): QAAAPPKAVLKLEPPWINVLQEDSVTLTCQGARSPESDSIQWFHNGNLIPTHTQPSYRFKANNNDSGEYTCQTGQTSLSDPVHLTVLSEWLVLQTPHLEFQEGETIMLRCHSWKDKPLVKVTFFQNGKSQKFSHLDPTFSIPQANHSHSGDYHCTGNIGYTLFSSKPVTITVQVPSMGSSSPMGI
Protocol: as §3, with “FcγRIIa_H131” for “FcγRIIb”

FcγRIIIa_V158 = biological target: T5, FcγRIIIa_V158 (UniProt P08637 17-208); assay: BLI (Fortebio Octet), FcγRIIIa_V158 immobilized on HIS1K sensor, antibody in solution at 31.25-500 nM
T5 construct: V158 polymorphic form (mature numbering)
Protocol: (§4) 5 μg/mL FcγRIIIa_V158 was immobilized on the HIS1K sensor for 120 s. […] The antibody was dissociated in the buffer for 60 s. The sensor was refreshed 4 times in 10 mM glycine pH 1.5, each for 5 s. The temperature was 30° C. and the frequency was 0.3 Hz. The data were analyzed by 1:1 model fitting to obtain affinity constants.

C1q [5] = biological target: T1, C1q; assay: BLI (Fortebio Octet), antibody immobilized on FAB2G sensor, C1q in solution at 1.25-20 nM
Protocol: as §1

FcγRI [6] = biological target: T2, FcγRI; assay: BLI (Fortebio Octet), FcγRI immobilized on HIS1K sensor, antibody in solution at 3.12-50 nM
Protocol: as §2

FcγRIIIa_F158 = biological target: T6, FcγRIIIa_F158 (UniProt P08637 17-208); assay: BLI (Fortebio Octet), FcγRIIIa_F158 immobilized on HIS1K sensor, antibody in solution at 31.25-500 nM
T6 construct: F158 polymorphic form
Protocol: as §4, with “FcγRIIIa_F158” for “FcγRIIIa_V158”

T1 sequence (P02745 23-245 limits assumed, chain 1 of 3): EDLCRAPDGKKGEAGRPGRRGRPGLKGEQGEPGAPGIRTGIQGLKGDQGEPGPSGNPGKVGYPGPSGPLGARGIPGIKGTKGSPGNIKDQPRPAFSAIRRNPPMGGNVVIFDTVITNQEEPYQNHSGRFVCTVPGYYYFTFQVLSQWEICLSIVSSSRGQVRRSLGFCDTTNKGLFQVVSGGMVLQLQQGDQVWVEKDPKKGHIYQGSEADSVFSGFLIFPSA
T1 sequence (P02746 28-253 limits assumed, chain 2 of 3): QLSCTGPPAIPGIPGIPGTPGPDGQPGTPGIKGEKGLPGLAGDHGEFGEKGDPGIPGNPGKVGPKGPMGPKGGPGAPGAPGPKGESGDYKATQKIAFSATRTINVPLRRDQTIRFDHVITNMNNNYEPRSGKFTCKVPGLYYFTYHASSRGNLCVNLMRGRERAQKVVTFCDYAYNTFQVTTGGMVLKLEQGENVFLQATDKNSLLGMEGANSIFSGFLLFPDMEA
T1 sequence (P02747 29-245 limits assumed, chain 3 of 3): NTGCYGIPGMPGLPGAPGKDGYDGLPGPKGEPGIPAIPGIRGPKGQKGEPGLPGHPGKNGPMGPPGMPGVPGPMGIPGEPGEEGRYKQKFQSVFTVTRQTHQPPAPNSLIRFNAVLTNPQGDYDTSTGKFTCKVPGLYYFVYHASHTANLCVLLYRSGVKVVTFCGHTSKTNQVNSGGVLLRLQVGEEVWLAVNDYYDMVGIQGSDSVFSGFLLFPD
T2 sequence (P12314 16-288 limits assumed): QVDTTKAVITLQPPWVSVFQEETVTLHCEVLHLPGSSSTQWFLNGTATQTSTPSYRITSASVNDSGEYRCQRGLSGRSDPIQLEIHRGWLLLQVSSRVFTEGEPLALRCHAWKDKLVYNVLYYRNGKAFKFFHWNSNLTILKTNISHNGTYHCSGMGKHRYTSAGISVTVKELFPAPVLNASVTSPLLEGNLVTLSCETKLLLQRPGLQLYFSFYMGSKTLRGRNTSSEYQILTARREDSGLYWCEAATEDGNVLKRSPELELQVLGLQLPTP
T6 sequence (P08637 17-208 limits assumed): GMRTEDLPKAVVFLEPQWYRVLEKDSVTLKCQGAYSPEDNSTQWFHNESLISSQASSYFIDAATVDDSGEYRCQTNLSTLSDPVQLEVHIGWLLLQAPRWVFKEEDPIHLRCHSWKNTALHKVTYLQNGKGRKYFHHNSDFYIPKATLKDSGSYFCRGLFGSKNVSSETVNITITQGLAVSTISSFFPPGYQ
T5 sequence (P08637 17-208 F176V limits assumed): as the sequence (P08637 17-208 limits assumed) above, with F160V counted along it

Kd (C1q [1]): 4.43 nM
koff (C1q [1]): 0.0105 s⁻¹
kon (C1q [1]): 2.38e+06 M⁻¹ s⁻¹
B1: 5C10H2L2-IgG1mt (antibody)
chain 1: not shown
chain 2: EIVLTQSPDTLSVTPKEKVTLTCRASQSIGTNIHWFQQKPGQSPKLLIKYASESISGVPSRFSGSGSGTDFTLTINSVEAEDAATYYCQQSNSWPYTFGQGTKLEIKRTVAAPSVFIFPPSDEQLKSGTASVVCLLNNFYPREAKVQWKVDNALQSGNSQESVTEQDSKDSTYSLSSTLTLSKADYEKHKVYACEVTHQGLSSPVTKSFNRGEC

Kd (C1q [1]): 2.53 nM
Kd (FcγRI [2]): 5.92 nM
Kd (FcγRIIb [3]): 56.1 nM
B2: BiAb004(hG1WT) (bispecific antibody, human IgG1, kappa)
heavy: not shown
light: DIQMTQSPSSMSASVGDRVTFTCRASQDINTYLSWFQQKPGKSPKTLIYRANRLVSGVPSRFSGSGSGQDYTLTISSLQPEDMATYYCLQYDEFPLTFGAGTKLELKRTVAAPSVFIFPPSDEQLKSGTASVVCLLNNFYPREAKVQWKVDNALQSGNSQESVTEQDSKDSTYSLSSTLTLSKADYEKHKVYACEVTHQGLSSPVTKSFNRGEC
notes: IgG-scFv (Morrison format); also called BiAb004(M); BiAh004(M)

binding result (FcγRIIb [4]): no binding (tested: 200 nM)
binding result (FcγRIIa_H131): no binding (tested: 200 nM)
binding result (FcγRIIIa_V158): no binding (tested: 500 nM)
binding result (C1q [5]): no binding (tested: 20 nM)
binding result (FcγRI [6]): no binding (tested: 50 nM)
binding result (FcγRIIIa_F158): no binding (tested: 500 nM)
B3: BiAb004(hG1TM) (bispecific antibody, human IgG1, kappa)
heavy: not shown
light: B2 light
notes: IgG-scFv (Morrison format), anti-PD-1 IgG1 with an anti-CTLA4 scFv on the C terminus of each heavy chain
